This is an account of results in US20080318857A1 (MEDICAL COLLEGE OF GEORGIA RESEARCH INSTITUTE, published 2008).

The target in this assay is T1, VEGFR-2 (KDR), endogenous in A375 human malignant melanoma cells (human, UniProt P35968 20-1356, limits assumed).
T1 construct: Endogenous protein in cell lysate; also called Flk
Put plainly: co-immunoprecipitation: anti-FLT IP of transfected hypoxic A375 cell fraction, Western blot with anti-VEGFR-2. On the procedure:
HMMCs transfected with pCMV.Flt23K or pCMV.Flt24K were subjected to hypoxia 48 hours after transfection. Two days later, the cellular fraction was immunoprecipitated with anti-FLT antibody (epitope specific for domains 2 and 3; Santa Cruz, Calif.) and subsequently underwent Western blotting with an anti-VEGF or an anti-VEGFR-2 antibody. A 50 kDa band (consistent with a VEGF homodimer interacting with the intraceptor) was detected in cells transfected with pCMV.Flt23K or pCMV.Flt24K (FIG. 5A). A 30 kDa band was present in cells transfected with pCMV.Flt24K but not pCMV.Flt23K (FIG. 5B).
Background: In western blotting, separated proteins are transferred to a membrane and probed.

T1 sequence (P35968 20-1356 limits assumed): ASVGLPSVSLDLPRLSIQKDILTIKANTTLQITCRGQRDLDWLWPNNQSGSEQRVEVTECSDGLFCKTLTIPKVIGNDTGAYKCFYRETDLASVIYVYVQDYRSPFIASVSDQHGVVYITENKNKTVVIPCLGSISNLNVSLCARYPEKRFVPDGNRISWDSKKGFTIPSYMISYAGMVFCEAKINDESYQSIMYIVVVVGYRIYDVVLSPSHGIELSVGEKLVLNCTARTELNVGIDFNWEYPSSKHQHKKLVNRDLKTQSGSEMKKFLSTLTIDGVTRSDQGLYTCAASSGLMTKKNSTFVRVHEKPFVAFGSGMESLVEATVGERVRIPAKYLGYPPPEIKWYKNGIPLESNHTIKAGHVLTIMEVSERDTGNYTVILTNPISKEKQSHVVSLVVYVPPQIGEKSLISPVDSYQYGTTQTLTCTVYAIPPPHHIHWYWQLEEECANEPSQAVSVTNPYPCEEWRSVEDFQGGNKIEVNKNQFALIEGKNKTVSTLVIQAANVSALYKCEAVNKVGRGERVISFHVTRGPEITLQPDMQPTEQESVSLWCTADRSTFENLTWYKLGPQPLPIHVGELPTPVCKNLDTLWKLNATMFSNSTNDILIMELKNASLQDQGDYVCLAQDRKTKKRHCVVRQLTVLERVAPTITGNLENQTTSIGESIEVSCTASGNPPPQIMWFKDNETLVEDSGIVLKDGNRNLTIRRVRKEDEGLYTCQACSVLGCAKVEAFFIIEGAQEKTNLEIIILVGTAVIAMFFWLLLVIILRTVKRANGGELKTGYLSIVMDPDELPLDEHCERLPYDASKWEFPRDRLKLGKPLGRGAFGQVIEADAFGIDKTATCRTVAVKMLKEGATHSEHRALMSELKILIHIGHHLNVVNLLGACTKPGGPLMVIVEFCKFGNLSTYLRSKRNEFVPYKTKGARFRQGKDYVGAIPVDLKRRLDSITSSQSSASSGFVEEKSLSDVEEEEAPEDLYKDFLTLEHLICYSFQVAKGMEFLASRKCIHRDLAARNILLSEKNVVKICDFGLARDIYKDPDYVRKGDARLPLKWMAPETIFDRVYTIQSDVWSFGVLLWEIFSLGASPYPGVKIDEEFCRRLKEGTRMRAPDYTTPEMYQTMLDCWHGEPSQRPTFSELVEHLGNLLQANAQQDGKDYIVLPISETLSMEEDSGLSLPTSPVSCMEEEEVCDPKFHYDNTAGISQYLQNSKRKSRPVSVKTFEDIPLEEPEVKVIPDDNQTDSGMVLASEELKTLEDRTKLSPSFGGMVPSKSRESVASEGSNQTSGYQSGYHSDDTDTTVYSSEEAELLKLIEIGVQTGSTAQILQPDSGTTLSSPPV

B1: Flt23K intraceptor (Flt23-KDEL; domains 2 and 3 of VEGFR-1 (Flt) fused at the C-terminus to the ER retention signal KDEL) (receptor)
chain: DTGRPFVEMYSEIPEIIHMTEGRELVIPCRVTSPNITVTLKKFPLDTLIPDGKRIIWDSRKGFIISNATYKEIGLLTCEATVNGHLYKTNYLTHRQTNTIIDVQISTPRPVKLLRGHTLVLNCTATTPLNTRVQMTWSYPDEKNKRASVRRRIDQSNSHANIFYSVLTIDKMQNKDKGLYTCRVRSGPSFKSVNTSVHIYDKAFITVKHRKKDEL
notes: Expressed inside transfected cells from pCMV.Flt23K, not purified; also called pCMV.Flt23K (expression plasmid); pCMV.Flt23
On to B1, for which the binding result is given as “no binding”.
